According to patent US9090676B2, “Method for treating Helicobacter pylori infections” (priority 2006, dated 2015):
“Also recorded” adds a separate entry of the source.

Legend:
[1] = test system: HPGGT; test: Immunization of animals, sera assayed for inhibition of GGT catalytic activity; type: in vivo, Helicobacter pylori; conditions: mice, sera taken 6 weeks after immunization
From the text: FIG. 9 is a diagram indicating the inhibitory effect of sera from immunized or infected mice on enzymatic activity of HPGGT. Mice were immunized with the indicated formulations or received PBS as control or were infected with live H. pylori. Sera were taken from tail veins 6 weeks after immunization or infection and assayed for inhibitory activity towards GGT catalytic activity.
(§1) The assay for GGT activity was adapted from the method of Meister et al.^27 Briefly, reaction buffer consisting of 20 mM glycyl-glycine (Sigma) as acceptor, 2.5 mM L-γ-glutamyl-p-nitroanilide (Calbiochem, Schwalbach, Germany) as donor substrate and 100 mM Tris-HCl (pH 8.0) was prepared. In some experiments pH of assay buffer was varied between 2 and 10. Supernatants of different H. pylori strains, purified recombinant HPGGT or equine kidney GGT (Sigma) were added and the reaction proceeded at 37° C. for 30 min. The release of p-nitroanilide was monitored by spectrophotometry at 405 nm. One unit of activity was defined as the quantity of enzyme that released 1 μmol of p-nitroanilide per min and per mg of protein at 37° C.

[2] = test system: Jurkat T cells; test: Analysis of apoptosis (Annexin V-FITC/PI, FACS); type: cell-based; conditions: 1 μM, 24 h
Experimental: 5×10^5 Jurkat T cells were treated as indicated. After 24 h cells were harvested by centrifugation, washed, resuspended in 500 μl AnnexinV-binding buffer (10 mM HEPES/NaOH, pH7.4, 140 mM NaCl, 2.5 mM CaCl2) and stained for 10 min each with 5 μl recombinant Annexin V-FITC (Caltag, Burlingame, Calif.) and 0.5 μg/ml PI at room temperature in the dark. Apoptotic cells were measured by FACS analysis (see above). Data were analyzed using Cell Quest software.

[3] = test system: gamma glutamyl transpeptidase of Helicobacter pylori (HPGGT); test: GGT activity assay: inhibition of GGT by acivicin; type: biochemical
Experimental: as §1
This compound acts as an irreversible and competitive inhibitor of GGT. […] Similar results were obtained for recombinant HPGGT (data not shown).

[4] = test system: human PBMC; test: Cell proliferation assay (3H-thymidine incorporation), stimulated PBMC; type: cell-based
Experimental: Isolation of peripheral blood lymphocytes (PBMC) was performed as described previously^3. All cells were incubated at 37° C. with 5% CO2. Jurkat T cells and PBMC were cultured in RPMI 1640 (Invitrogen, Karlsruhe, Germany) with 10% FCS. EL-4 T cells were cultured in DMEM (Invitrogen) supplemented with 10% horse serum (Cambrex, Verviers, Belgium).
Cells (10^5 PBMC, purified primary T cells or 10^4 Jurkat/EL-4 cells/well) were cultured in 96-well flat-bottom plates in complete medium. PBMC were stimulated in triplicate with PMA (20 ng/ml; Sigma) and Ionomycin (100 ng/ml; Sigma) and all cells were grown with or without indicated total protein concentrations of H. pylori supernatants or recombinant proteins. Primary human T cells were stimulated with either PMA/Ionomycin as described above or with anti-CD3/CD28 beads (Invitrogen) at 1 bead per T cell. Cellular proliferation was determined after 48 h by methyl-[^3H]-thymidine (GE Healthcare) incorporation using a Packard Direct Beta Counter Matrix 9600 (Packard Instruments Co, Downer's Grove, Ill.).

[5] = test system: IFN-γ; test: IFN-γ ELISA of PBMC supernatants; type: cell-based, human; conditions: PBMC stimulated with PMA and Ionomycin, 24 h
Experimental: (§2) PBMC (5×10^5 each) were treated for 24 h as depicted. At indicated time points cells were removed by centrifugation and supernatants were analyzed for amounts of IL-2 (eBioscience, San Diego, Calif.) and IFN-γ (Biosource, Solingen, Germany) by ELISA according to the manufacturer's instructions. The lower limits of detection were 4 pg/ml.
(§3) To date so far nothing was known about a role of HPGGT during suppression of the host's immune response. The inhibition of lymphocyte proliferation by HPGGT reported here might result from interference with cytokine secretion of human PBMCs. To test this hypothesis, cells were stimulated with PMA and Ionomycin and incubated with or without H. pylori wild-type and ΔGGT supernatants or recombinant HPGGT at different concentrations for 24 h. […] In addition secretion of IFN-γ was not reduced (FIG. 5B).

[6] = test system: human PBMCs; test: Immunoblotting of cell cycle regulatory proteins in PBMC; type: cell-based; conditions: 24 h and 48 h
Experimental: FIG. 6B an SDS PAGE of the proteins obtained from 10^7 PBMC which were incubated with different concentrations of HPWT and HPΔGGTSN or rHPGGT for 24 h and 48 h and subsequently lysed. 35 μg of total protein were separated by SDS-PAGE and analyzed by immunoblotting. Levels of indicated proteins were determined using the corresponding antibodies. Data were reproduced 2 times with similar results. (HP=H. pylori, SN=supernatant, WT=wild-type).
For immunoblot analysis 10^7 Jurkat T cells or PBMC were used. Prior to the experiment, Jurkat cells were serum starved for 18 h in medium containing 0.2% FCS. Afterwards, cells were released with 10% FCS and treated as depicted. At the indicated time points, the cells were harvested, washed once with ice-cold PBS, resuspended in 1× lysis buffer (Cell Signaling Technology, Danvers, Mass.) containing protease inhibitors (2.5 mM sodium pyrophosphate, 1 mM β-glycerophosphate, 1 mM Na3VO4, 1 μg/ml leupeptin, 1 mM PMSF; Sigma) and sonicated with a micro tip sonifier on ice for 30 sec. Lysates were centrifuged at 10000×g for 10 min at 4° C. and supernatants were used for immunoblotting. Equal amounts of protein (determined by Bradford assay, BioRad) were separated by Tricine-SDS-PAGE and electrotransferred onto nitrocellulose membranes (BioRad). […]

[7] = test system: IL-2; test: IL-2 ELISA of PBMC supernatants; type: cell-based, human; conditions: PBMC stimulated with PMA and Ionomycin, 24 h, compared to stimulated control
Experimental: as §2, §3

[8] = GGT activity assay: catalytic activity of GGT proteins and fractions; type: biochemical
Experimental: as §1

[9] = test system: Jurkat T cells; test: Immunoblotting of cell cycle regulatory and signaling proteins; type: cell-based
Experimental: For immunoblot analysis 10^7 Jurkat T cells or PBMC were used. Prior to the experiment, Jurkat cells were serum starved for 18 h in medium containing 0.2% FCS. Afterwards, cells were released with 10% FCS and treated as depicted. At the indicated time points, the cells were harvested, washed once with ice-cold PBS, resuspended in 1× lysis buffer (Cell Signaling Technology, Danvers, Mass.) containing protease inhibitors (2.5 mM sodium pyrophosphate, 1 mM β-glycerophosphate, 1 mM Na3VO4, 1 μg/ml leupeptin, 1 mM PMSF; Sigma) and sonicated with a micro tip sonifier on ice for 30 sec. Lysates were centrifuged at 10000×g for 10 min at 4° C. and supernatants were used for immunoblotting. Equal amounts of protein (determined by Bradford assay, BioRad) were separated by Tricine-SDS-PAGE and electrotransferred onto nitrocellulose membranes (BioRad). For detection, membranes were probed with primary antibodies anti-p27, anti-Cyclin D3, anti-Cyclin E, anti-c-Myc (Dianova, Hamburg, Germany), anti-Cdk2 (Santa-Cruz Biotechnology, Heidelberg, Germany), anti-phospho-AKT (Ser 473), anti-phospho-c-Raf (Ser 338), anti-phospho-p70S6K (Thr 389; Cell Signaling), anti-phospho-FKHRL1/Foxo3 (Thr 32; Upstate, Lake Placid, N.Y.), anti-Actin (Sigma) and anti-VacA (Austral Biologicals, San Ramon, Calif.). […] For detection of the large subunit of the HPGGT protein a polyclonal rabbit anti-GGT antibody raised against a synthesized peptide IQPDTVTPSSQIKPGM including amino acid residues 356 to 371 of the HP 1118 gene product (Charles River, Kisslegg, Germany) was used.

[10] = incubation of the HPGGT with acivicin
[11] = preincubation of HPWTSN with acivicin (50 μM) for 2 h at 37° C.

IQPDTVTPSSQIKPGM [peptide 356-371, peptide of HPGGT residues 356 to 371, far from the catalytic center]
inhibitory antibodies / inhibitory immune response against HPGGT in serum [1]: No inhibitory immune response

CN[C@@H]1C[C@H]2O[C@@](C)([C@@H]1OC)n1c3ccccc3c3c4c(c5c6ccccc6n2c5c31)C(=O)NC4 [staurosporin, reference compound]
apoptosis (positive control) [2]: strongly induced apoptosis

N[C@H](C(=O)O)[C@@H]1CC(Cl)=NO1 [acivicin]
catalytic activity of HPGGT after incubation with acivicin [3, 10]: completely abolishes
GGT activity of H. pylori wild-type supernatants after pretreatment with acivicin [3, 11]: abrogated; also recorded: completely repressed
inhibitory effect of the enzyme (HPGGT) towards lymphocytes after incubation with acivicin [4, 10]: completely abolishes
inhibition of PBMC proliferation by H. pylori wild-type supernatants after pretreatment with acivicin [4, 11]: abrogated; also recorded: completely repressed

B1: recombinant HPGGT: recombinant His-tagged gamma glutamyl transpeptidase of H. pylori expressed in E. coli (protein, listed as Helicobacter pylori)
chain: MRRSFLKTIGLGVIALFLGLLNPLSAASYPPIKNTKVGLALSSHPLASEIGQKVLEEGGNAIDAAVAIGFALAVVHPAAGNIGGGGFAVIHLANGENVALDFREKAPLKATKNMFLDKQGNVVPKLSEDGYLAAGVPGTVAGMEAMLKKYGTKKLSQLIDPAIKLAENGYAISQRQAETLKEARERFLKYSSSKKYFFKKGHLDYQEGDLFVQKDLAKTLNQIKTLGAKGFYQGQVAELIEKDMKKNGGIITKEDLASYNVKWRKPVVGSYRGYKIISMSPPSSGGTHLIQILNVMENADLSALGYGASKNIHIAAEAMRQAYADRSVYMGDADFVSVPVDKLINKAYAKKIFDTIQPDTVTPSSQIKPGMGQLHEGSNTTHYSVADRWGNAVSVTYTINASYGSAASIDGAGFLLNNEMDDFSIKPGNPNLYGLVGGDANAIEANKRPLSSMSPTIVLKNNKVFLVVGSPGGSRIITTVLQVISNVIDYNMNISEAVSAPRFHMQWLPDELRIEKFGMPADVKDNLTKMGYQIVTKPVMGDVNAIQVLPKTKGSVFYGSTDPRKEF
modifications: His-tag
notes: recombinant His-tagged gamma glutamyl transpeptidase of H. pylori expressed in E. coli
secretion of IFN-γ [5]: not reduced
cell cycle regulating proteins (Cyclin D3, E1) in PBMC [6]: even stronger reduction
reduction of IL-2 secretion [7]: none of these treatments led to reduction
enzymatic GGT activity ([8]; pH 8.0, 37° C., 30 min): strong GGT activity
pH range of catalytic activity ([8]; pH of assay buffer varied between 2 and 10): 2-10
Cyclin levels ([9]; 2 μg/ml): complete reduction
cellular levels and phosphorylation of AKT, p70S6k and Foxo 3 (PI3K-signaling) ([9]; Jurkat T cells and PBMC): not reduced
cellular levels of c-Myc and phosphorylation of c-Raf (Ras-dependent pathway) ([9]; Jurkat T cells and PBMC): reduced
inhibition of PBMC proliferation ([4]; PBMC stimulated with PMA/Ionomycin, 48 h): efficiently inhibited
inhibitory effect of HPGGT on lymphocyte proliferation in the absence of glutamine ([4]; medium without the amino acid glutamine): completely abolished
